Test results as given in article PMC4109716.
Where two headings read alike, the source gives them in different places.

Tests used:
Experiment in all cases: smFRET
POT1;TPP1N [1] = target: T1, POT1;TPP1N (Homo sapiens;Homo sapiens?, UniProt Q9NUX5;Q96AP0 1-634;3-248, |)
POT1 [2] = target: T2, POT1 (Homo sapiens, UniProt Q9NUX5 1-634)
T2 sequence: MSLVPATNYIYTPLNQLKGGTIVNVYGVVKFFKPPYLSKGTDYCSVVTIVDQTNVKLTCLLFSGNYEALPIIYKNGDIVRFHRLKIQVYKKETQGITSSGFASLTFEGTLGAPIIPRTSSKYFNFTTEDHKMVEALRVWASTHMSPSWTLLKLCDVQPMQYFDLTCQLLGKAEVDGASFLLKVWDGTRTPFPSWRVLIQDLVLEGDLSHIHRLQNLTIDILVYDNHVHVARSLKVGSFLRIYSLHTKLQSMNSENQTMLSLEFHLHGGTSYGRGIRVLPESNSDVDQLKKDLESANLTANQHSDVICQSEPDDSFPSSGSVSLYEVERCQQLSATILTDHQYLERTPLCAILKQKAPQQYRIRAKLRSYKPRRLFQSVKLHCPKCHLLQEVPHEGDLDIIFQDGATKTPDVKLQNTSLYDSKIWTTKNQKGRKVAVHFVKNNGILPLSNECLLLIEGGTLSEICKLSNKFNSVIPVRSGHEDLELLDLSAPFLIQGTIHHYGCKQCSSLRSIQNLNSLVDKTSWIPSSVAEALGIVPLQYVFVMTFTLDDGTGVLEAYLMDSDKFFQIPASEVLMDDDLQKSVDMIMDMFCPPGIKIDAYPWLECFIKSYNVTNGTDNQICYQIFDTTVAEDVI

POT1 [3] = target: T2, POT1; remark: listed apart in the source
POT1;TPP1N-Alexa 647 [4] = target: T3, POT1;TPP1N-Alexa 647 (Homo sapiens;Homo sapiens?, UniProt Q9NUX5;Q96AP0 1-634;3-248, |)
T3 sequence (Q96AP0 3-248, one chain of several): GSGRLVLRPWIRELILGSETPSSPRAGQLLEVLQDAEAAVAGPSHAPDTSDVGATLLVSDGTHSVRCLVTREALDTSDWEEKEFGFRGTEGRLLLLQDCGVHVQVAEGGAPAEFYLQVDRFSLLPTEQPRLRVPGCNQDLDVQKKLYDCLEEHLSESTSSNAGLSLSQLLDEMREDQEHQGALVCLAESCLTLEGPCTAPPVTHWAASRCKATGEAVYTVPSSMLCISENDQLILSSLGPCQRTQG

POT1;TPP1N-Alexa 647 [5] = target: T3, POT1;TPP1N-Alexa 647; remark: listed apart in the source
POT1;TPP1N-Alexa 647 [6] = target: T3, POT1;TPP1N-Alexa 647; remark: listed apart in the source
POT1 [7] = target: T2, POT1; remark: listed apart in the source
POT1 [8] = target: T2, POT1; remark: listed apart in the source
POT1;TPP1N [9] = target: T1, POT1;TPP1N; remark: listed apart in the source
POT1 [10] = target: T2, POT1; remark: listed apart in the source
POT1 [11] = target: T2, POT1; remark: listed apart in the source

T1 sequence (Q96AP0 3-248, one chain of several): as above

B1: G4 (24 nt FRET) (mixed)
DNA 1: TGGCGACGGCAGCGAGGCTTAGGGTTAGGGTTAGGGTTAGGG
DNA 2: GCCTCGCTGCCGTCGCCA
binding result (POT1;TPP1N [1]): binds
binding result (POT1 [2]): binds

B2: G3 (mixed)
DNA 1: TGGCGACGGCAGCGAGGCTTAGGGTTAGGGTTAGGG
DNA 2: GCCTCGCTGCCGTCGCCA
binding result (POT1 [3]): binds

B3: G4 (3'Cy3, unlabelled stem strand) (mixed)
DNA 1: TGGCGACGGCAGCGAGGCTTAGGGTTAGGGTTAGGGTTAGGG
DNA 2: GCCTCGCTGCCGTCGCCA
binding result (POT1;TPP1N-Alexa 647 [4]): binds

B4: G2-mut2 (unlabelled stem strand) (mixed)
DNA 1: TGGCGACGGCAGCGAGGCTTAGGGTTAGGGTTTGGCTTTGGC
DNA 2: GCCTCGCTGCCGTCGCCA
binding result (POT1;TPP1N-Alexa 647 [5]): binds

B5: G2-mut4 (unlabelled stem strand) (mixed)
DNA 1: TGGCGACGGCAGCGAGGCTTAGGGTTAGGGTTTGGCTTTGGCTTTGGCTTTGGC
DNA 2: GCCTCGCTGCCGTCGCCA
binding result (POT1;TPP1N-Alexa 647 [6]): binds

B6: G2 (mixed)
DNA 1: TGGCGACGGCAGCGAGGCTTAGGGTTAGGG
DNA 2: GCCTCGCTGCCGTCGCCA
binding result (POT1 [7]): binds

B7: OB2 mutant (mixed)
DNA 1: TGGCGACGGCAGCGAGGCTTAGGGTTTT
DNA 2: GCCTCGCTGCCGTCGCCA
binding result (POT1 [8]): binds

B8: G4 (18 nt Cy3) (mixed)
DNA 1: TGGCGACGGCAGCGAGGCTTAGGGTTAGGGTTAGGGTTAGGG
DNA 2: GCCTCGCTGCCGTCGCCA
modifications: internal Cy3 in strand 1 after nt 36
binding result (POT1;TPP1N [9]): binds
binding result (POT1 [10]): binds

B9: G4 (6 nt Cy3) (mixed)
DNA 1: TGGCGACGGCAGCGAGGCTTAGGGTTAGGGTTAGGGTTAGGG
DNA 2: GCCTCGCTGCCGTCGCCA
modifications: internal Cy3 in strand 1 after nt 24
binding result (POT1 [10]): binds

B10: G2-mut2 (FRET with Cy5 stem) (mixed)
DNA 1: TGGCGACGGCAGCGAGGCTTAGGGTTAGGGTTTGGCTTTGGC
DNA 2: GCCTCGCTGCCGTCGCCA
binding result (POT1 [11]): binds
